According to paper PMC3046868 (Nature, 2010):

Target: the molecule itself
Assay: western blot

B1: HA-tagged wild-type APCDD1 (natural protein)
chain: not shown
modifications: glycosylated
With B1 the “stoichiometry N” value was 2.
